{"source": "patent US6420157B1", "about": "“Zymogen activation system” (Ortho-McNeil Pharmaceutical, Inc., priority 1999, dated 2002)", "molecules": {"B1": {"name": "PFEK-MH2-6XHIS: catalytic domain of human protease MH2 in the PFEK1-6XHIS-TAG activation construct (SEQ.ID.NO.:54), EK-activated (protein)", "chain": "MDSKGSSQKSRLLLLLVVSNLLLCQGVVSDYKDDDDVDAAALAAPFDDDDKIVGGYNCLEPHSQPWQAALVMENELFCSGVLVHPQWVLSAAHCFQNSYTIGLGLHSLEADQEPGSQMVEASLSVRHPEYNRPLLANDLMLIKLDESVSESDTIRSISIASQCPTAGNSCLVSGWGLLANGRMPTVLQCVNVSVVSEEVCSKLYDPLYHPSMFCAGGGHDQKDSCNGDSGGPLICNGYLQGLVSFGKAPCGQVGVPGVYTNLCKFTEWIEKTVQASSRHHHHHH"}}, "assay_type_in_all_cases": "biochemical", "conditions_in_all_cases": "EK-activated protease; substrate 500 uM; pH 7.8; 37° C.; 120 minutes", "key": {"[1]": {"assay": "Chromogenic amidolytic assay, release of pNA from H-D-Pro-HHT-Arg-pNA", "description": "(§1) Cells were lysed on ice in 20 mM Tris (pH7.4), 150 mM NaCl, 1% Triton X-100, 1 mM EDTA, 1 mM EGTA, 1 mM PMSF, leupeptin (1 μg/ml), and pepstatin (1 μg/ml). Cell lysates were mixed with anti-FLAG M2 affinity gel (Eastman Kodak Co., New Haven, Conn.) and bound at 4° C. for 3 hours with gentle rotation. The zymogen-bound resin was washed 3 times with TBS buffer (50 mM Tris-HCl, 150 mM NaCl at a final pH of 7.5), and eluted by competition with FLAG peptide (100 μg/ml) in TBS buffer. The eluted zymogen was dialyzed overnight against TBS in Spectra/Por membrane (MWCO: 12,000-14,000) (Spectra Medical Industries, Inc., Huston, Tex.). […] Eluted protein concentration was determined by a Micro BCA Kit (Pierce, Rockford, Ill.) using bovine serum albumin as a standard. Amidolytic activities of the activated protease was monitored by release of para-nitroaniline (pNA) from the synthetic substrates indicated in Table 2. […] Release of pNA was measured over 120 minutes at 37° C. on a micro-plate reader (Molecular Devices, Menlo Park, Calif.) with a 405 nm absorbance filter. The initial reaction rates (Vmax, mOD/min) were determined from plots of absorbance versus time using Softmax (Molecular Devices, Menlo Park, Calif.). […] No measurable chromogenic amidolytic activity was detected with the purified unactivated zymogens. […]"}, "[2]": {"assay": "Chromogenic amidolytic assay, release of pNA from H-D-Lys(CBO)-Pro-Arg-pNA", "description": "as §1"}, "[3]": {"assay": "Chromogenic amidolytic assay, release of pNA from H-D-Val-Leu-Lys-pNA", "description": "as §1"}, "[4]": {"assay": "Chromogenic amidolytic assay, release of pNA from H-DL-Val-Leu-Arg-pNA", "description": "as §1"}}}
{"molecule": "B1", "values": [{"measurement": "specific activity, H-D-Pro-HHT-Arg-pNA", "setting": "[1]", "value": "0.052 nmole pNA produced /min/ug protein"}, {"measurement": "specific activity, H-D-Lys(CBO)-Pro-Arg-pNA", "setting": "[2]", "value": "0.893 nmole pNA produced /min/ug protein"}, {"measurement": "specific activity, H-D-Val-Leu-Lys-pNA", "setting": "[3]", "value": "0.121 nmole pNA produced /min/ug protein"}, {"measurement": "specific activity, H-DL-Val-Leu-Arg-pNA", "setting": "[4]", "value": "0.058 nmole pNA produced /min/ug protein"}]}
